This assay addresses Yeast Hsp90 wildtype construct without the coiled-coil motif and without cysteine mutation (yeast) (UniProt P02829). In words: neutron spin echo spectroscopy; Hsp90 wildtype at 50 mg mL^-1 (614 µM) in D2O buffer with 150 mM KCl, 10 mM MgCl2, 295 K; effective diffusion compared with rigid-body models of dimer and hexamer.

Our source for the stoichiometry N values is publication PMC10754087.

As usually defined, the stoichiometry N is a count of units in the complex or per binding partner. In turn, “Yeast Hsp90 wildtype construct without the coiled-coil motif and without cysteine mutation, P02829 1-709 (natural protein; other documents disagree on this pair)” gave a stoichiometry N of 6.
